From IntAct's records for PubMed 17235283

B1: Lymphocyte cytosolic protein 2 (Homo sapiens), Q13094 (parent)
chain: MALRNVPFRSEVLGWDPDSLADYFKKLNYKDCEKAVKKYHIDGARFLNLTENDIQKFPKLRVPILSKLSQEINKNEERRSIFTRKPQVPRFPEETESHEEDNGGWSSFEEDDYESPNDDQDGEDDGDYESPNEEEEAPVEDDADYEPPPSNDEEALQNSILPAKPFPNSNSMYIDRPPSGKTPQQPPVPPQRPMAALPPPPAGRNHSPLPPPQTNHEEPSRSRNHKTAKLPAPSIDRSTKPPLDRSLAPFDREPFTLGKKPPFSDKPSIPAGRSLGEHLPKIQKPPLPPTTERHERSSPLPGKKPPVPKHGWGPDRRENDEDDVHQRPLPQPALLPMSSNTFPSRSTKPSPMNPLPSSHMPGAFSESNSSFPQSASLPPYFSQGPSNRPPIRAEGRNFPLPLPNKPRPPSPAEEENSLNEEWYVSYITRPEAEAALRKINQDGTFLVRDSSKKTTTNPYVLMVLYKDKVYNIQIRYQKESQVYLLGTGLRGKEDFLSVSDIIDYFRKMPLLLIDGKNRGSRYQCTLTHAAGYP

Variants of: B1
Conditions: with grb2_human GRB2, P62993
Chain of grb2_human GRB2, P62993 (P62993 whole entry, looked up): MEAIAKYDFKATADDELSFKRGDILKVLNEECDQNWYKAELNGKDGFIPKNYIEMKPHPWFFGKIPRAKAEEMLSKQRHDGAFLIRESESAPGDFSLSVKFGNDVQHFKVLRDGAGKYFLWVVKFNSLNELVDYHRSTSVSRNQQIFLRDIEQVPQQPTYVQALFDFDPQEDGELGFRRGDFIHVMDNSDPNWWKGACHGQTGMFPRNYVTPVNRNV

Variant	effect of a mutation on the interaction
MALRNVPFRSEVLGWDPDSLADYFKKLNYKDCEKAVKKYHIDGARFLNLTENDIQKFPKLRVPILSKLSQEINKNEERRSIFTRKPQVPRFPEETESHEEDNGGWSSFEEDDYESPNDDQDGEDDGDYESPNEEEEAPVEDDADYEPPPSNDEEALQNSILPAKPFPNSNSMYIDRPPSGKTPQQPPVPPQRPMAALPPPPAGRNHSPLPPPQTNHEEPSRSRNHKTAKLPAPSIDRSPKPPLDRSLAPFDREPFTLGKKPPFSDKPSIPAGRSLGEHLPKIQKPPLPPTTERHERSSPLPGKKPPVPKHGWGPDRRENDEDDVHQRPLPQPALLPMSSNTFPSRSTKPSPMNPLPSSHMPGAFSESNSSFPQSASLPPYFSQGPSNRPPIRAEGRNFPLPLPNKPRPPSPAEEENSLNEEWYVSYITRPEAEAALRKINQDGTFLVRDSSKKTTTNPYVLMVLYKDKVYNIQIRYQKESQVYLLGTGLRGKEDFLSVSDIIDYFRKMPLLLIDGKNRGSRYQCTLTHAAGYP [T239P]	disrupting interaction

Variants of: B1
Conditions: with stam1_human STAM

Variant	effect of a mutation on the interaction
MALRNVPFRSEVLGWDPDSLADYFKKLNYKDCEKAVKKYHIDGARFLNLTENDIQKFPKLRVPILSKLSQEINKNEERRSIFTRKPQVPRFPEETESHEEDNGGWSSFEEDDYESPNDDQDGEDDGDYESPNEEEEAPVEDDADYEPPPSNDEEALQNSILPAKPFPNSNSMYIDRPPSGKTPQQPPVPPQRPMAALPPPPAGRNHSPLPPPQTNHEEPSRSRNHKTAKLPAPSIDRSPKPPLDRSLAPFDREPFTLGKKPPFSDKPSIPAGRSLGEHLPKIQKPPLPPTTERHERSSPLPGKKPPVPKHGWGPDRRENDEDDVHQRPLPQPALLPMSSNTFPSRSTKPSPMNPLPSSHMPGAFSESNSSFPQSASLPPYFSQGPSNRPPIRAEGRNFPLPLPNKPRPPSPAEEENSLNEEWYVSYITRPEAEAALRKINQDGTFLVRDSSKKTTTNPYVLMVLYKDKVYNIQIRYQKESQVYLLGTGLRGKEDFLSVSDIIDYFRKMPLLLIDGKNRGSRYQCTLTHAAGYP [T239P]	disrupting interaction

Variants of: B1
Conditions: with stam2_human STAM2, O75886

Variant	effect of a mutation on the interaction
MALRNVPFRSEVLGWDPDSLADYFKKLNYKDCEKAVKKYHIDGARFLNLTENDIQKFPKLRVPILSKLSQEINKNEERRSIFTRKPQVPRFPEETESHEEDNGGWSSFEEDDYESPNDDQDGEDDGDYESPNEEEEAPVEDDADYEPPPSNDEEALQNSILPAKPFPNSNSMYIDRPPSGKTPQQPPVPPQRPMAALPPPPAGRNHSPLPPPQTNHEEPSRSRNHKTAKLPAPSIDRSPKPPLDRSLAPFDREPFTLGKKPPFSDKPSIPAGRSLGEHLPKIQKPPLPPTTERHERSSPLPGKKPPVPKHGWGPDRRENDEDDVHQRPLPQPALLPMSSNTFPSRSTKPSPMNPLPSSHMPGAFSESNSSFPQSASLPPYFSQGPSNRPPIRAEGRNFPLPLPNKPRPPSPAEEENSLNEEWYVSYITRPEAEAALRKINQDGTFLVRDSSKKTTTNPYVLMVLYKDKVYNIQIRYQKESQVYLLGTGLRGKEDFLSVSDIIDYFRKMPLLLIDGKNRGSRYQCTLTHAAGYP [T239P]	disrupting interaction

Variants of: B1
Conditions: with stam1_human STAM
Remark: another data set of the same source

Variant	effect of a mutation on the interaction
MALRNVPFRSEVLGWDPDSLADYFKKLNYKDCEKAVKKYHIDGARFLNLTENDIQKFPKLRVPILSKLSQEINKNEERRSIFTRKPQVPRFPEETESHEEDNGGWSSFEEDDYESPNDDQDGEDDGDYESPNEEEEAPVEDDADYEPPPSNDEEALQNSILPAKPFPNSNSMYIDRPPSGKTPQQPPVPPQRPMAALPPPPAGRNHSPLPPPQTNHEEPSRSRNHKTAKLPAPPIDRSTKPPLDRSLAPFDREPFTLGKKPPFSDKPSIPAGRSLGEHLPKIQKPPLPPTTERHERSSPLPGKKPPVPKHGWGPDRRENDEDDVHQRPLPQPALLPMSSNTFPSRSTKPSPMNPLPSSHMPGAFSESNSSFPQSASLPPYFSQGPSNRPPIRAEGRNFPLPLPNKPRPPSPAEEENSLNEEWYVSYITRPEAEAALRKINQDGTFLVRDSSKKTTTNPYVLMVLYKDKVYNIQIRYQKESQVYLLGTGLRGKEDFLSVSDIIDYFRKMPLLLIDGKNRGSRYQCTLTHAAGYP [S234P]	decreasing interaction

Variants of: B1
Conditions: with stam2_human STAM2, O75886
Remark: another data set of the same source

Variant	effect of a mutation on the interaction
MALRNVPFRSEVLGWDPDSLADYFKKLNYKDCEKAVKKYHIDGARFLNLTENDIQKFPKLRVPILSKLSQEINKNEERRSIFTRKPQVPRFPEETESHEEDNGGWSSFEEDDYESPNDDQDGEDDGDYESPNEEEEAPVEDDADYEPPPSNDEEALQNSILPAKPFPNSNSMYIDRPPSGKTPQQPPVPPQRPMAALPPPPAGRNHSPLPPPQTNHEEPSRSRNHKTAKLPAPPIDRSTKPPLDRSLAPFDREPFTLGKKPPFSDKPSIPAGRSLGEHLPKIQKPPLPPTTERHERSSPLPGKKPPVPKHGWGPDRRENDEDDVHQRPLPQPALLPMSSNTFPSRSTKPSPMNPLPSSHMPGAFSESNSSFPQSASLPPYFSQGPSNRPPIRAEGRNFPLPLPNKPRPPSPAEEENSLNEEWYVSYITRPEAEAALRKINQDGTFLVRDSSKKTTTNPYVLMVLYKDKVYNIQIRYQKESQVYLLGTGLRGKEDFLSVSDIIDYFRKMPLLLIDGKNRGSRYQCTLTHAAGYP [S234P]	decreasing interaction

Variants of: B1
Conditions: with grb2_human GRB2, P62993
Remark: another data set of the same source

Variant	effect of a mutation on the interaction
MALRNVPFRSEVLGWDPDSLADYFKKLNYKDCEKAVKKYHIDGARFLNLTENDIQKFPKLRVPILSKLSQEINKNEERRSIFTRKPQVPRFPEETESHEEDNGGWSSFEEDDYESPNDDQDGEDDGDYESPNEEEEAPVEDDADYEPPPSNDEEALQNSILPAKPFPNSNSMYIDRPPSGKTPQQPPVPPQRPMAALPPPPAGRNHSPLPPPQTNHEEPSRSRNHKTAKLPAPSIDRRTKPPLDRSLAPFDREPFTLGKKPPFSDKPSIPAGRSLGEHLPKIQKPPLPPTTERHERSSPLPGKKPPVPKHGWGPDRRENDEDDVHQRPLPQPALLPMSSNTFPSRSTKPSPMNPLPSSHMPGAFSESNSSFPQSASLPPYFSQGPSNRPPIRAEGRNFPLPLPNKPRPPSPAEEENSLNEEWYVSYITRPEAEAALRKINQDGTFLVRDSSKKTTTNPYVLMVLYKDKVYNIQIRYQKESQVYLLGTGLRGKEDFLSVSDIIDYFRKMPLLLIDGKNRGSRYQCTLTHAAGYP [S238R]	decreasing interaction

Variants of: B1
Conditions: with stam1_human STAM
Remark: another data set of the same source

Variant	effect of a mutation on the interaction
MALRNVPFRSEVLGWDPDSLADYFKKLNYKDCEKAVKKYHIDGARFLNLTENDIQKFPKLRVPILSKLSQEINKNEERRSIFTRKPQVPRFPEETESHEEDNGGWSSFEEDDYESPNDDQDGEDDGDYESPNEEEEAPVEDDADYEPPPSNDEEALQNSILPAKPFPNSNSMYIDRPPSGKTPQQPPVPPQRPMAALPPPPAGRNHSPLPPPQTNHEEPSRSRNHKTAKLPAPSIDRRTKPPLDRSLAPFDREPFTLGKKPPFSDKPSIPAGRSLGEHLPKIQKPPLPPTTERHERSSPLPGKKPPVPKHGWGPDRRENDEDDVHQRPLPQPALLPMSSNTFPSRSTKPSPMNPLPSSHMPGAFSESNSSFPQSASLPPYFSQGPSNRPPIRAEGRNFPLPLPNKPRPPSPAEEENSLNEEWYVSYITRPEAEAALRKINQDGTFLVRDSSKKTTTNPYVLMVLYKDKVYNIQIRYQKESQVYLLGTGLRGKEDFLSVSDIIDYFRKMPLLLIDGKNRGSRYQCTLTHAAGYP [S238R]	decreasing interaction

Variants of: B1
Conditions: with stam2_human STAM2, O75886
Remark: another data set of the same source

Variant	effect of a mutation on the interaction
MALRNVPFRSEVLGWDPDSLADYFKKLNYKDCEKAVKKYHIDGARFLNLTENDIQKFPKLRVPILSKLSQEINKNEERRSIFTRKPQVPRFPEETESHEEDNGGWSSFEEDDYESPNDDQDGEDDGDYESPNEEEEAPVEDDADYEPPPSNDEEALQNSILPAKPFPNSNSMYIDRPPSGKTPQQPPVPPQRPMAALPPPPAGRNHSPLPPPQTNHEEPSRSRNHKTAKLPAPSIDRRTKPPLDRSLAPFDREPFTLGKKPPFSDKPSIPAGRSLGEHLPKIQKPPLPPTTERHERSSPLPGKKPPVPKHGWGPDRRENDEDDVHQRPLPQPALLPMSSNTFPSRSTKPSPMNPLPSSHMPGAFSESNSSFPQSASLPPYFSQGPSNRPPIRAEGRNFPLPLPNKPRPPSPAEEENSLNEEWYVSYITRPEAEAALRKINQDGTFLVRDSSKKTTTNPYVLMVLYKDKVYNIQIRYQKESQVYLLGTGLRGKEDFLSVSDIIDYFRKMPLLLIDGKNRGSRYQCTLTHAAGYP [S238R]	decreasing interaction
